Test results: patent US20250084179A1 (Xencor, published 2025)

What was measured:
TROP2 [1] = biological target: T1, TROP2 (UniProt P09758 27-274, limits assumed); assay: KD; method and format not stated
T1 construct: also called tumor-associated calcium signal transducer 2; TACSTD2
T1 sequence (looked up): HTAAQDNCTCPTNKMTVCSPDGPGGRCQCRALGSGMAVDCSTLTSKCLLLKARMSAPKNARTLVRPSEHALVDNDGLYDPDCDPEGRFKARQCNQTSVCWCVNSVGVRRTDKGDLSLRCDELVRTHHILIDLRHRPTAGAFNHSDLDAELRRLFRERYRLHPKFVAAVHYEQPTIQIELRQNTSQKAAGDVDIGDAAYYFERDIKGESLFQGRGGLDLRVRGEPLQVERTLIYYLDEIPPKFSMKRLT

TROP2 [2] = biological target: T1, TROP2; assay: not stated; bivalent format
Cyno TROP2 = biological target: T2, Cyno TROP2 (Macaca fascicularis, UniProt A0A2K5UE71); assay: not stated; bivalent format
T2 construct: Construct used in the measurement is not described; also called cynomolgus TROP2
T2 sequence (antigen): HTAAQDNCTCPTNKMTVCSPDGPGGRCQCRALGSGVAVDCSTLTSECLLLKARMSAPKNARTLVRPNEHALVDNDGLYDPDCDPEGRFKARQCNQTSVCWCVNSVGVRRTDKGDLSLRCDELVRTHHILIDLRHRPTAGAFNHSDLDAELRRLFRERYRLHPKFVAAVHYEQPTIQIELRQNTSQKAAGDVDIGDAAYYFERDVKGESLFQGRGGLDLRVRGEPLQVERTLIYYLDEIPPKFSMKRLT

TROP2 [3] = biological target: T1, TROP2; assay: monovalent KD; method not stated
human CD28 [4] = biological target: T3, human CD28 (human, UniProt P10747 19-152, limits assumed); assay: not stated; value printed beside the name in the 'CD28 Mutations' cell, apparently a reference affinity of this domain
T3 construct: also called Cluster of Differentiation 28; Tp44

human CD28 [5] = biological target: T3, human CD28; assay: Octet, monovalent KD; format of this comparator not stated
human CD28 [6] = biological target: T3, human CD28; assay: Octet, monovalent KD of Fab
human CD28 [7] = biological target: T3, human CD28; assay: another set of experiments; monovalent Fab, method not restated (Octet for the FIG. 35 data)

B1: 1B2A4.312 (antibody, V domains shown)
VH: QVQLVQSGAEVKKPGASVKVSCKASGYTFTGSYMHWVRQAPGQGLEWMGIINPSGESTVYAQKFQGRVTMTRDTSTSTVYMELSSLRSEDTAVYYCARDPGGSWPFSYALDYWGQGTLVTVSS
VL: not shown
notes: Phage-derived TROP2 clone; also called 1B2A4.312[TROP2]_H1 with L1
B1 showed a Kd (TROP2 [1]) of 64 nM.

B2: 1F11-1A3.315_H1L1 (antibody, V domains shown)
VH: QVQLVQSGAEVKKPGASVKVSCKASGYTFTRYYMHWVRQAPGQGLEWMGIINPGGGSTGYAQKFQGRVTMTRDTSTSTVYMELSSLRSEDTAVYYCARDDVVAADVFDYWGQGTLVTVSS
VL: not shown
notes: also called 1F11-1A3.315[Trop2]_H1 with L1; copies: 1 + 1
For B2, the Kd (TROP2 [2]) was 6.5 nM, the koff (TROP2 [2]) was 0.0012 s⁻¹ and the kon (TROP2 [2]) was 190000 M⁻¹ s⁻¹. For the same binder, the Kd (Cyno TROP2) was 9.9 nM, the koff (Cyno TROP2) was 0.0021 s⁻¹ and the kon (Cyno TROP2) was 210000 M⁻¹ s⁻¹. The Kd (TROP2 [3]) was 13 nM.

B3: 1F11-1A3.315_H1.10_L1 (antibody, V domains shown)
VH: QVQLVQSGAEVKKPGASVKVSCKASGYTFTRYYMHWVRQAPGQGLEWMGIIEPGGGSTTYAQKFQGRVTMTRDTSTSTVYMELSSLRSEDTAVYYCARDDVVAADVFDYWGQGTLVTVSS
VL: not shown
notes: also called 1F11-1A3.315[Trop2]_H1.10 with L1
B3 showed a Kd (TROP2 [2]) of 0.98 nM, a koff (TROP2 [2]) of 0.00033 s⁻¹ and a kon (TROP2 [2]) of 330000 M⁻¹ s⁻¹. For the same binder, the Kd (Cyno TROP2) was 1.5 nM, the koff (Cyno TROP2) was 0.00053 s⁻¹ and the kon (Cyno TROP2) was 340000 M⁻¹ s⁻¹. It also gave a Kd (TROP2 [3]) of 5 nM.

B4: 1F11-1A3.315_H1.19_L1 (antibody, V domains shown)
VH: QVQLVQSGAEVKKPGASVKVSCKASGYTLTRYYMHWVRQAPGQGLEWMGIIEPGGGSTTYAQKFQGRVTMTRDTSTSTVYMELSSLRSEDTAVYYCARDDVVKADVFDYWGQGTLVTVSS
VL: not shown
notes: also called 1F11-1A3.315[Trop2]_H1.19 with L1
Work on B4 yielded a Kd (TROP2 [2]) of 0.25 nM, a koff (TROP2 [2]) of 0.0001 s⁻¹ and a kon (TROP2 [2]) of 410000 M⁻¹ s⁻¹. The Kd (Cyno TROP2) was 0.46 nM, the koff (Cyno TROP2) was 0.0002 s⁻¹ and the kon (Cyno TROP2) was 450000 M⁻¹ s⁻¹. The Kd (TROP2 [3]) was 2 nM.

B5: 1A3A4.312 (antibody, V domains shown)
VH: QVQLVQSGAEVKKPGASVKVSCKASGYTFTRHYMHWVRQAPGQGLEWMGIINPGGGATSYAQKFQGRVTMTRDTSTSTVYMELSSLRSEDTAVYYCAREDYAGKWWGMDYWGQGTLVTVSS
VL: not shown
notes: Phage-derived TROP2 clone; also called 1A3A4.312[TROP2]_H1 with L1
B5 was tested, and the Kd (TROP2 [1]) was 80 nM.

B6: 1B11A3.316 (antibody, V domains shown)
VH: QVQLVQSGAEVKKPGASVKVSCKASGYTFTRYYMHWVRQAPGQGLEWMGIINPGGGSTIYAQKFQGRVTMTRDTSTSTVYMELSSLRSEDTAVYYCARDDVIVDAFDYWGQGTLVTVSS
VL: not shown
notes: Phage-derived TROP2 clone; also called 1B11A3.316[TROP2]_H1 with L1
B6 gave a Kd (TROP2 [1]) of 54 nM.

B7: 1C9A4.313 (antibody, V domains shown)
VH: QVQLVQSGAEVKKPGSSVKVSCKASGGTFSNYAIGWVRQAPGQGLEWMGGIVPIFGVADYAQKFQGRVTITADESTSTAYMELSSLRSEDTAVYYCAREGWYLLNYFDYWGQGTLVTVSS
VL: not shown
notes: Phage-derived TROP2 clone; also called 1C9A4.313[TROP2]_H1 with L1
In the case of B7, the Kd (TROP2 [1]) is reported as 40 nM.

B8: 2C5A3.316 (antibody, V domains shown)
VH: QVQLVQSGAEVKKPGSSVKVSCKASGGTFTTSGISWVRQAPGQGLEWMGGIVPLLGTVNYAQKFQGRVTITADESTSTAYMELSSLRSEDTAVYYCARSGAATDARYGLDYWGQGTLVTVSS
VL: not shown
notes: Phage-derived TROP2 clone; also called 2C5A3.316[TROP2]_H1 with L1
In the case of B8, the Kd (TROP2 [1]) is reported as 345 nM.

B9: 1A7_H1.14_L1.71 (antibody, V domains shown)
VH: EVQLLESGGGLVQPGGSLRLSCAASGFTFSSYYMSWVRQAPGKGLEWVSTISESGDSTYYADSVKGRFTISRDNSKNTLYLQMNSLRAEDTAVYYCAKSGPGLRQVGFDYWGQGTLVTVSS
VL: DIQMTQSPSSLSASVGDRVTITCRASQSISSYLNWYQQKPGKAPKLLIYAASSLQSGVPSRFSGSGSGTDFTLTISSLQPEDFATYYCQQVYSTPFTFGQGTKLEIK
notes: also called 1A7[CD28]_H1.14_L1.71
B9 was tested, and the Kd (human CD28 [4]) was 37 nM and the Kd (human CD28 [5]) was 38 nM.

B10: 1A7_H1.114_IGKV1-39_L1 (Fab, V domains shown)
VH: EVQLLESGGGLVQPGGSLRLSCAASGFTFSSYYMSWVRQAPGKGLEWVSTIAERGDSTYYADSVKGRFTISRDNSKNTLYLQMNSLRAEDTAVYYCAKSGPGLRQVGFDYWGQGTLVTVSS
VL: not shown
notes: also called 1A7[CD28]_H1.114 paired with IGKV1-39 germline VL (1F11-1A3.315 L1)
B10 gave a Kd (human CD28 [6]) of 44 nM.

B11: 1A7_H1.129_IGKV1-39_L1 (Fab, V domains shown)
VH: EVQLLESGGGLVQPGGSLRLSCAASGFTFSSYYMSWVRQAPGKGLEWVSTISERADSTYYADSVKGRFTISRDNSKNTLYLQMNSLRAEDTAVYYCAKSGPGLRQVGFDYWGQGTLVTVSS
VL: not shown
notes: Constant domains not specified for the assay; also called 1A7[CD28]_H1.129 paired with IGKV1-39 germline VL; 1F11-1A3.315 L1 as common light chain
With B11 the Kd (human CD28 [7]) was 60 to 70 nM and the Kd (human CD28 [6]) was 21 nM.

B12: 1A7_H1.130_IGKV1-39_L1 (Fab, V domains shown)
VH: EVQLLESGGGLVQPGGSLRLSCAASGFTFSSYYMSWVRQAPGKGLEWVSTISERGDVTYYADSVKGRFTISRDNSKNTLYLQMNSLRAEDTAVYYCAKSGPGLRQVGFDYWGQGTLVTVSS
VL: not shown
notes: also called 1A7[CD28]_H1.130 paired with IGKV1-39 germline VL (1F11-1A3.315 L1)
B12 showed a Kd (human CD28 [6]) of 46 nM.

B13: 1A7_H1.118_IGKV1-39_L1 (Fab, V domains shown)
VH: EVQLLESGGGLVQPGGSLRLSCAASGFTFSSYYMSWVRQAPGKGLEWVSTIAESGDPTYYADSVKGRFTISRDNSKNTLYLQMNSLRAEDTAVYYCAKSGPGLRQVGFDYWGQGTLVTVSS
VL: not shown
notes: also called 1A7[CD28]_H1.118 paired with IGKV1-39 germline VL
Binder B13 has a Kd (human CD28 [7]) of about 400 nM and a Kd (human CD28 [6]) of 63 nM.

B14: 1A7_H1.125_IGKV1-39_L1 (Fab, V domains shown)
VH: EVQLLESGGGLVQPGGSLRLSCAASGFTFSSYYMSWVRQAPGKGLEWVSTISEHGLSTYYADSVKGRFTISRDNSKNTLYLQMNSLRAEDTAVYYCAKSGPGLRQVGFDYWGQGTLVTVSS
VL: not shown
notes: also called 1A7[CD28]_H1.125 paired with IGKV1-39 germline VL (1F11-1A3.315 L1)
Work on B14 yielded a Kd (human CD28 [6]) of 28 nM.
